The target in the test is GFP-tagged Fab1p (yeast) [yeast]. The experiment in a line: co-immunoprecipitation (IP: Fab1p-GFP), densitometry. Particulars: Bound fraction; parent: 1.

Consider “myc-tagged Fig4p (wildtype, yeast) mutant I59T [yeast] / GFP-tagged Fab1p (yeast) [yeast] chain 1 I59T”, for which the ratio to parent stood at 0.4.
